These results are taken from patent publication US11130783B2, “CD40 targeted peptides and uses thereof” (Regents of the University of Minnesota, priority 2018, dated 2021).

Test [1] relates to CD4, CD8 and CD20 cells. Description: One-way CFSE mixed lymphocyte reaction (MLR), T and B cell proliferation. The test is classed as cell-based, Rhesus macaques. Particulars: peptides at 30 μM, 6 days, CFSE-low cells, PBMC from 5 RM. How it is done:
The ability of the CD40 targeting peptides to block CD40-CD40L signaling and inhibit T and B cell proliferation was assessed in a one-way CFSE-MLR. Each of the FIGS. 3A-3E show results of CFSE-MLR performed on PBMC obtained from a different Rhesus monkey. […] The levels of T cell and B cell proliferation was 35-46% in all the 5 animals and for sake clarity was capped at 25% in the figure for better visualization.
In order to determine the functional effect of co-stimulation blockade with peptides targeting CD40, one-way mixed lymphocyte reactions (MLR) was performed. CFSE-labeled PBMC from 5 different RM were stimulated with irradiated PBMC for 6 days. Stimulation with PHA was used as positive control. […] The cells were incubated in the presence of peptides at 30 μM. Following stimulation, PBMC were stained with antibodies specific for CD4, CD8 and CD20 and proliferating cells were quantitated by determining the frequency of CFSE-low CD4, CD8 and CD20 cells. Stained cells were acquired on a 3-laser BD Canto II instrument (BD Bioscience). A minimum of 200,000 events were acquired with FACSDIVA 6.1.3. FACS analysis was performed with FlowJo Version 10 software.

The subject of test [2] is B cells. Description: Peptide blocking of B cell activation by recombinant hCD40L (MHC class II expression). The class given is cell-based, Rhesus macaques. Particulars: peptides at 30 μM, pre-incubation then recombinant hCD40L. How it is done: The ability of the newly identified peptides to block B cell activation by CD40L was analyzed in a peptide blocking study. Briefly, B cells were pre-incubated with newly identified peptides for 30 minutes before stimulation with rhCD40L. Activation of the B cells was analyzed by measuring the expression levels of MHC class II molecules on the cell surface by flow cytometry.
The ability of CD40-binding peptides 1-7 as listed in Table 1 to block B cell activation was assessed by analyzing the expression of MHC class II molecules on the B cell when subsequently incubated in the presence of recombinant hCD40L. Briefly, B cells were purified from 3 RM PBMC by magnetic sorting. B cells were incubated with peptides at 30 μM for 15 minutes at 37° C., then activated for 30 minutes with recombinant hCD40L, and then analyzed for expression of MHC class II by staining the cells with specific antibody. Stained cells were acquired on a 3-laser BD Canto II instrument (BD Bioscience). A minimum of 200,000 events were acquired with FACSDIVA 6.1.3. FACS analysis was performed with FlowJo Version 10 software.

Test [3] deals with T1, recombinant human CD40 (Homo sapiens, UniProt P25942).
T1 construct: probed with FLAG-tagged rhsCD40 (1 μg/ml; Alexis); purchased Alexis
In words: ELISA for specificity of peptide binding to CD40. As to conditions: for binding affinity to CD40 by ELISA: FLAG-tagged rhsCD40 1 μg/ml, optical density at 450 nm; for affinity to bind to CD40 compared to the control Peptide 1: summary of the study. How it is done: Binding of the identified peptides to CD40 was analyzed by ELISA. Briefly, plates were coated with […] and then incubated with identified peptides and detected using Flag-tagged rhsCD40.
In order to confirm the specificity of the peptides to interfere with CD40:CD154 interaction, the specificity of peptides 1-7 as listed in table 1 to bind to human […] by ELISA was tested. Briefly, 96 well ELISA (Nunc Immunolon) plates were coated with the peptides in carbonate buffer. The wells are washed and probed with FLAG-tagged rhsCD40 (1 μg/ml; Alexis) and developed with HRP conjugated rabbit anti-FLAG antibody. The plates were washed and the enzymatic activity was determined using 3,3′,5,5′-tetramethyl-benzidine substrate for 15 minutes and the reaction was stopped by the addition of 2 M H2SO4, and optical density was measured at 450 nm, with the correction wavelength set at 620 nm.
A general note: In an ELISA, binding on a coated surface is turned into a signal by an enzyme label.

Test [4] has as its target T2, CD40 on mononuclear cells (Macaca mulatta, UniProt A0ACM8QRX8).
T2 construct: peripheral blood mononuclear cells (PBMC) purified from 2 Rhesus macaques (RM); endogenous in cells; host or cells: PBMC from Rhesus macaques
Description: Binding of fluorochrome tagged CD40 targeting peptides to PBMC by flow cytometry. As to conditions: 5 μM fluorochrome tagged peptide, 30 minutes at 4° C. Also on record: species or system Rhesus macaques. How it is done:
Binding of the CD40 targeting peptides was analyzed by incubating 5 μM of various fluorochrome tagged CD40 interacting peptides with PBMC from rhesus monkeys for 30 minutes at 4° C. and analyzed by flow cytometry.
In order to screen the ability of the cyclic peptides to bind to CD40, peripheral blood mononuclear cells (PBMC) purified from 2 Rhesus macaques (RM) were incubated with 5 μM of fluorochrome tagged CD40 interacting peptides, Peptide 1-7 listed in Table 1 for 30 minutes at 4° C. The cells were washed 3× in PBS and analyzed by flow cytometry. Stained cells were acquired on a 3-laser BD Canto II instrument (BD Bioscience). A minimum of 200,000 events were acquired with FACSDIVA 6.1.3. Mean fluorescence intensity of the peptide binding to the cells were determined using FlowJo 10.1. software (Tree Star; Ashland, OR, USA). […] 1-7 bind to the PBMC but at various intensities, confirming the ability of the synthetic peptides to bind to CD40 on mononuclear cells.

“Also recorded” adds a separate entry of the source.

T2 sequence (A0ACM8QRX8 21-278): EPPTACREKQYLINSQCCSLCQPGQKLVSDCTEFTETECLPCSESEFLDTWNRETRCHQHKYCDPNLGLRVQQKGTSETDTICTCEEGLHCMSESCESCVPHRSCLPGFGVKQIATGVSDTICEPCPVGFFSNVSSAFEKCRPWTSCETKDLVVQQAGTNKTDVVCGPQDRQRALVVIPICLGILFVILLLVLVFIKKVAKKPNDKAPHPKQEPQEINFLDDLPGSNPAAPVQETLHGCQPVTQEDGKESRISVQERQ
T1 sequence (P25942 21-193 limits assumed): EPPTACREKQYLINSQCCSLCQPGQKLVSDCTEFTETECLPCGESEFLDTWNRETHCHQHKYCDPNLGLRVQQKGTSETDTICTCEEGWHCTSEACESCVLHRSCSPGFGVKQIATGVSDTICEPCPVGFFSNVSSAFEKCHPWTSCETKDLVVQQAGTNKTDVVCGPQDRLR

Consider VLQWAERGFYTTSNN [Peptide 2], for which the “suppression of T and B cell (CD4, CD8, CD20) proliferation” value (“suppression of T and B cell” below) was “higher efficacy compared to the other peptides; also recorded: complete abrogation of T and B cell proliferation” in test [1]; “inhibited T and B cell proliferation significantly better than the CD40 targeting peptide identified earlier” in test [1] (listed as Peptide#2). For the same sequence, the “ability to block B cell activation (MHC class II expression)” value (“ability to block B cell activation” for short) in test [2] was “complete abrogation of T and B cell proliferation as well as activation of B cells”. In test [3], the “binding affinity to CD40 by ELISA” value was “specific binding to human CD40”. In addition, the “affinity to bind to CD40 compared to the control Peptide 1” value in test [3] was “higher affinity”.

VVQWAEKGFFTMSNN [Peptide 3]: the “suppression of T and B cell” value in test [1] was “higher efficacy compared to the other peptides; also recorded: complete abrogation of T and B cell proliferation”; in test [1] (listed as Peptide #3) it was “inhibited T and B cell proliferation significantly better than the CD40 targeting peptide identified earlier”. For the same sequence, the “binding to PBMC / mononuclear cells (mean fluorescence intensity)” value (shortened to “binding to PBMC / mononuclear cells”) in test [4] is recorded as “high binding affinity”. Further, the “ability to block B cell activation” value in test [2] was “complete abrogation of T and B cell proliferation as well as activation of B cells”. Also, the “binding affinity to CD40 by ELISA” value in test [3] is “specific binding to human CD40”. Besides, the “affinity to bind to CD40 compared to the control Peptide 1” value in test [3] was “higher affinity”.

For “VLQWAEKGYYTMSNN [Peptide 1, reference compound]”, the “binding to PBMC / mononuclear cells” value in test [4] is recorded as “high binding affinity”. For the same sequence, in test [3], the “binding affinity to CD40 by ELISA” value is on record as “high binding affinity”.

Take LVNWADKAFYTTSNN [Peptide 5]: the “suppression of T and B cell” value in test [1] was “complete abrogation of T and B cell proliferation”. Further, in test [2], the “ability to block B cell activation” value was “complete abrogation of T and B cell proliferation as well as activation of B cells”. The “affinity to bind to CD40 compared to the control Peptide 1” value in test [3] was “higher affinity”.

In the case of VLNWADKAYFTMSQN [Peptide 4], in test [3], the “binding affinity to CD40 by ELISA” value is reported as “lowest binding affinity”.

VVQWAEKGYYTMSQN [Peptide 7]: the “binding to PBMC / mononuclear cells” value in test [4] is listed as “least binding affinity”. The “binding affinity to CD40 by ELISA” value in test [3] was “specific binding to human CD40”.
